# Results reported in publication PMC3227520 (Biochemistry, 2011).
# Where two headings read alike, the source gives them in different places. Primed or numbered codes have the meaning given here. *: point of attachment. FITC = O=C1OC2(c3ccc(O)cc3Oc3cc(O)ccc32)c2ccc(NC(=S)*)cc21; FITC′ = fluorescein isothiocyanate label; Ahx = NCCCCCC(=O)O
# B1: wild-type S100A4 (native noncovalent S100A4 dimer) (natural protein)
# chain: not shown
# B2: FITC-MIIA^1904–1927 (nonmuscle myosin-IIA 24mer peptide) (peptide)
# peptide: {FITC-Ahx}-TETADAMNREVSSLKNKLRRGDLP-NH2
# SMILES: CSCC[C@H](NC(=O)[C@H](C)NC(=O)[C@H](CC(=O)O)NC(=O)[C@H](C)NC(=O)[C@@H](NC(=O)[C@H](CCC(=O)O)NC(=O)[C@@H](NC(=O)CCCCCNC(=S)Nc1ccc2c(c1)C(=O)OC21c2ccc(O)cc2Oc2cc(O)ccc21)[C@@H](C)O)[C@@H](C)O)C(=O)N[C@@H](CC(N)=O)C(=O)N[C@@H](CCCNC(=N)N)C(=O)N[C@@H](CCC(=O)O)C(=O)N[C@H](C(=O)N[C@@H](CO)C(=O)N[C@@H](CO)C(=O)N[C@@H](CC(C)C)C(=O)N[C@@H](CCCCN)C(=O)N[C@@H](CC(N)=O)C(=O)N[C@@H](CCCCN)C(=O)N[C@@H](CC(C)C)C(=O)N[C@@H](CCCNC(=N)N)C(=O)N[C@@H](CCCNC(=N)N)C(=O)NCC(=O)N[C@@H](CC(=O)O)C(=O)N[C@@H](CC(C)C)C(=O)N1CCC[C@H]1C(N)=O)C(C)C
# Assays:
# [1] = target: B1; assay: fluorescence polarisation
# [2] = target: B2; assay: fluorescence polarisation
# cross-linking = target: the molecule itself; assay: cross-linking
# [3] = target: B1; assay: fluorescence polarisation; remark: listed apart in the source
binder,measurement,setting,value
"{FITC′-Ahx}-DAMNREVSSLKNKLRR-NH2 [FITC-MIIA^1908–1923 (nonmuscle myosin-IIA peptide, minimal S100A4 binding site)]",Kd,[1],1800 ± 200 nM
B1,stoichiometry N,[2],1 S100A4 dimer per peptide
"MIIA^1851–1960 (nonmuscle myosin-IIA heavy chain fragment) (domain or fragment, UniProt P35579 1851-1960, looked up) VDDERRNAEQYKDQADKASTRLKQLKRQLEEAEEEAQRANASRRKLQRELEDATETADAMNREVSSLKNKLRRGDLPFVVPRRMARKGAGDGSDEEVDGKADGAEAKPAE",stoichiometry N,cross-linking,2
B2,Kd,[3],260 ± 30 nM
